According to article PMC10786891, “Massively parallel profiling of RNA-targeting CRISPR-Cas13d”:
Where a chain is given by its changes, count along the chain named. Names and notes keep the numbering of the source.

T1: EsCas13d, nuclease-dead (Eubacterium siraeum, UniProt B0MS50, R295A;H300A;R849A;H854A)
T1 sequence: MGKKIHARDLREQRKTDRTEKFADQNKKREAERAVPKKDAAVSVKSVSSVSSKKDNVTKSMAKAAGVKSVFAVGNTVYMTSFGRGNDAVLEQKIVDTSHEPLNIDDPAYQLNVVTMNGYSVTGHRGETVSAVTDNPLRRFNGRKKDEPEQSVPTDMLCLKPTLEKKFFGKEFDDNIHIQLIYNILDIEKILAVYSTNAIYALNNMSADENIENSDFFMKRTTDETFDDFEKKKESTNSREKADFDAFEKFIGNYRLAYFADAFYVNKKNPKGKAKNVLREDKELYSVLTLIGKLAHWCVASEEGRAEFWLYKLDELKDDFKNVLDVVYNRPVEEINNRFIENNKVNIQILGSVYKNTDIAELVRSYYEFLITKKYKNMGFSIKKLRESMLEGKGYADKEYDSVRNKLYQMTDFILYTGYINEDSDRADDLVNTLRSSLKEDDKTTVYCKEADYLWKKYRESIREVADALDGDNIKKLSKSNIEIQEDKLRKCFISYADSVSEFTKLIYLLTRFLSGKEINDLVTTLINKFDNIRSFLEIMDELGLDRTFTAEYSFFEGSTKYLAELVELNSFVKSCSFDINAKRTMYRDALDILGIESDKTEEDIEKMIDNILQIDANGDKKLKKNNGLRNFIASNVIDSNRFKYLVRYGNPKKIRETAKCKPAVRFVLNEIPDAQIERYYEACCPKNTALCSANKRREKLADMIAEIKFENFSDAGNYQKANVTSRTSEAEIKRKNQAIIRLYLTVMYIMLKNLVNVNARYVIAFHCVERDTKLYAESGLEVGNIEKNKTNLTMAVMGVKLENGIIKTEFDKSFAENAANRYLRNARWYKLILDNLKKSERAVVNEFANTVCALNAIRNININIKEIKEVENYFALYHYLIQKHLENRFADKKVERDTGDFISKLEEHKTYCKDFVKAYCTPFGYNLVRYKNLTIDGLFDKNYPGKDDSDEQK

B1: target 2 MT 5'PFS UCU 3'PFS UUC (mixed)
RNA 1: CACCCGUGCAAAAUUGCAGGGGUCUAAAACCUUCUCCAAAUUGUUUCAUCCU
RNA 2: GGGAAUGGAUCCACAUCUACGAAUUCUCUAGGAUGAAACAAUUUGGAGAAGUUCAGAUCGGAAGAGCACACGU
B2: target 2 MT 5'PFS GCG 3'PFS CGC (mixed)
RNA 1: B1 RNA 1
RNA 2: B1 RNA 2 with U27G, U29G, U52C, U53G
B3: target 2 MT 5'PFS UAU 3'PFS CAC (mixed)
RNA 1: B1 RNA 1
RNA 2: B1 RNA 2 with C28A, U52C, U53A
B4: target 2 MT 5'PFS ACA 3'PFS AAC (mixed)
RNA 1: B1 RNA 1
RNA 2: B1 RNA 2 with U27A, U29A, U52A, U53A
B5: target 2 MT 5'PFS AAA 3'PFS UCG (mixed)
RNA 1: B1 RNA 1
RNA 2: B1 RNA 2 with U27A, C28A, U29A, U53C, C54G
B6: target 2 MT 5'PFS UCA 3'PFS CUC (mixed)
RNA 1: B1 RNA 1
RNA 2: B1 RNA 2 with U29A, U52C
B7: target 2 MT 5'PFS UAU 3'PFS UUG (mixed)
RNA 1: B1 RNA 1
RNA 2: B1 RNA 2 with C28A, C54G
B8: target 2 MT 5'PFS UAU 3'PFS CAG (mixed)
RNA 1: B1 RNA 1
RNA 2: B1 RNA 2 with C28A, U52C, U53A, C54G
B9: target 2 MT 5'PFS UCA 3'PFS CUG (mixed)
RNA 1: B1 RNA 1
RNA 2: B1 RNA 2 with U29A, U52C, C54G
B10: target 2 MT 5'PFS UCU 3'PFS UUA (mixed)
RNA 1: B1 RNA 1
RNA 2: B1 RNA 2 with C54A
B11: target 2 MT 5'PFS UAU 3'PFS UUA (mixed)
RNA 1: B1 RNA 1
RNA 2: B1 RNA 2 with C28A, C54A
B12: target 2 MT 5'PFS AAA 3'PFS UCU (mixed)
RNA 1: B1 RNA 1
RNA 2: B1 RNA 2 with U27A, C28A, U29A, U53C, C54U
B13: target 2 MT 5'PFS GAC 3'PFS UAA (mixed)
RNA 1: B1 RNA 1
RNA 2: B1 RNA 2 with U27G, C28A, U29C, U53A, C54A
B14: target 2 MT 5'PFS GCA 3'PFS UAA (mixed)
RNA 1: B1 RNA 1
RNA 2: B1 RNA 2 with U27G, U29A, U53A, C54A
B15: target 2 MT 5'PFS GAC 3'PFS UAG (mixed)
RNA 1: B1 RNA 1
RNA 2: B1 RNA 2 with U27G, C28A, U29C, U53A, C54G
B16: target 2 MT 5'PFS GCA 3'PFS UAC (mixed)
RNA 1: B1 RNA 1
RNA 2: B1 RNA 2 with U27G, U29A, U53A
B17: target 2 MT 5'PFS ACC 3'PFS ACG (mixed)
RNA 1: B1 RNA 1
RNA 2: B1 RNA 2 with U27A, U29C, U52A, U53C, C54G
B18: target 2 MT 5'PFS GGC 3'PFS CGU (mixed)
RNA 1: B1 RNA 1
RNA 2: B1 RNA 2 with U27G, C28G, U29C, U52C, U53G, C54U
B19: target 2 MT 5'PFS GCA 3'PFS UAG (mixed)
RNA 1: B1 RNA 1
RNA 2: B1 RNA 2 with U27G, U29A, U53A, C54G
B20: target 2 MT 5'PFS ACC 3'PFS ACU (mixed)
RNA 1: B1 RNA 1
RNA 2: B1 RNA 2 with U27A, U29C, U52A, U53C, C54U
B21: target 2 MT 5'PFS GAC 3'PFS UAC (mixed)
RNA 1: B1 RNA 1
RNA 2: B1 RNA 2 with U27G, C28A, U29C, U53A
B22: target 2 MT 5'PFS CUG 3'PFS AUC (mixed)
RNA 1: B1 RNA 1
RNA 2: B1 RNA 2 with U27C, C28U, U29G, U52A
B23: target 2 MT 5'PFS ACC 3'PFS ACC (mixed)
RNA 1: B1 RNA 1
RNA 2: B1 RNA 2 with U27A, U29C, U52A, U53C
B24: target 2 MT 5'PFS GCA 3'PFS UAU (mixed)
RNA 1: B1 RNA 1
RNA 2: B1 RNA 2 with U27G, U29A, U53A, C54U
B25: target 2 MT 5'PFS AGU 3'PFS UAC (mixed)
RNA 1: B1 RNA 1
RNA 2: B1 RNA 2 with U27A, C28G, U53A
B26: target 2 MT 5'PFS UCA 3'PFS CUA (mixed)
RNA 1: B1 RNA 1
RNA 2: B1 RNA 2 with U29A, U52C, C54A
B27: target 2 MT 5'PFS UAU 3'PFS UUU (mixed)
RNA 1: B1 RNA 1
RNA 2: B1 RNA 2 with C28A, C54U
B28: target 2 MT 5'PFS AAA 3'PFS UCC (mixed)
RNA 1: B1 RNA 1
RNA 2: B1 RNA 2 with U27A, C28A, U29A, U53C
B29: target 2 MT 5'PFS AUC 3'PFS AAC (mixed)
RNA 1: B1 RNA 1
RNA 2: B1 RNA 2 with U27A, C28U, U29C, U52A, U53A
B30: target 2 MT 5'PFS GAC 3'PFS UAU (mixed)
RNA 1: B1 RNA 1
RNA 2: B1 RNA 2 with U27G, C28A, U29C, U53A, C54U
B31: target 2 MT 5'PFS UAU 3'PFS CAA (mixed)
RNA 1: B1 RNA 1
RNA 2: B1 RNA 2 with C28A, U52C, U53A, C54A
B32: target 2 MT 5'PFS AUA 3'PFS UGU (mixed)
RNA 1: B1 RNA 1
RNA 2: B1 RNA 2 with U27A, C28U, U29A, U53G, C54U
B33: target 1 insC 3' of 15,insA 3' of 15 (mixed)
RNA 1: CACCCGUGCAAAAAUGCAGGGGUCUAAAACUGAGCGGAUAACCUCUCUAUGG
RNA 2: GGGAAUGGAUCCACAUCUACGAAUUCGUACCAUAGAGCAAGGUUAUCCGCUCACCGAGAUCGGAAGAGCACACGU
B34: target 1 insU 3' of 22,insG 3' of 14 (mixed)
RNA 1: B33 RNA 1
RNA 2: B33 RNA 2 with C31U, A32C, U33A, A34U, G35A, A36G, G37A, C38G, A40G
B35: target 1 insG 3' of 7,insA 3' of 3 (mixed)
RNA 1: B33 RNA 1
RNA 2: GGGAAUGGAUCCACAUCUACGAAUUCGUACCAUAGAGAGGUUAUCGCGCUACACCGAGAUCGGAAGAGCACACGU
B36: target 1 insA 3' of 13,insA 3' of 11 (mixed)
RNA 1: B33 RNA 1
RNA 2: B33 RNA 2 with C38A, A39G, G42U, U43A
B37: target 1 A1U,G13A (mixed)
RNA 1: B33 RNA 1
RNA 2: GGGAAUGGAUCCACAUCUACGAAUUCGUACCAUAGAGAAGUUAUCCGCUCUCCGAGAUCGGAAGAGCACACGU

The binders below were run against T1, EsCas13d, nuclease-dead (assay: crRNA (strand 1, pre-loaded); Mg2+; 40 mM Tris-HCl pH 7.5, 150 mM NaCl, 6 mM MgCl2, 1 mM DTT, 0.1% Tween-20, 0.2 mg/ml BSA; 25 C; 10 min per concentration, then washed). Conditions: tags: His6-TwinStrep-SUMO cleaved; N-terminal SNAP kept (SNAP-Surface 488); label: 3' end held by stalled T7 RNA polymerase.

Point of comparison: B25, Kd 15.1 ± 3.3 nM. Against it:
- B1 — within error, 18 ± 4 nM
- B2 — within error, 12 ± 0.7 nM
- B3 — 3.1-fold higher, 47 ± 9 nM
- B4 — 3.8-fold lower, 4 ± 1.3 nM
- B5 — 3.1-fold lower, 4.9 ± 1.1 nM
- B6 — 1.7-fold lower, 8.7 ± 2.2 nM
- B7 — 1.5-fold higher, 23.1 ± 3.1 nM
- B8 — 2.3-fold higher, 34 ± 7 nM
- B9 — 2.1-fold lower, 7.3 ± 1.1 nM
- B10 — within error, 15.6 ± 3 nM
- B11 — 2.2-fold higher, 33 ± 9 nM
- B12 — within error, 15 ± 5 nM
- B13 — 1.6-fold lower, 9.5 ± 1.8 nM
- B14 — 2.4-fold lower, 6.4 ± 1.3 nM
- B15 — 2-fold lower, 7.5 ± 1 nM
- B16 — within error, 12.3 ± 2.6 nM
- B17 — 3.5-fold lower, 4.3 ± 0.9 nM
- B18 — within error, 18 ± 2.4 nM
- B19 — within error, 12.3 ± 2.1 nM
- B20 — 2.1-fold lower, 7.1 ± 3.2 nM
- B21 — 1.8-fold higher, 27 ± 8 nM
- B22 — 6.6-fold lower, 2.3 ± 0.4 nM
- B23 — within error, 10.2 ± 3.1 nM
- B24 — within error, 10.7 ± 1.5 nM
- B26 — 2.4-fold lower, 6.3 ± 1.7 nM
- B27 — 3.2-fold higher, 48 ± 11 nM
- B28 — 2.1-fold lower, 7.3 ± 1.4 nM
- B29 — within error, 25 ± 11 nM
- B30 — within error, 10.8 ± 2.4 nM
- B31 — within error, 14.2 ± 1.5 nM
- B32 — within error, 13.3 ± 2 nM
- B33 — 1.7-fold lower, 8.8 ± 0.6 nM
- B34 — 4.5-fold higher, 68 ± 22 nM
- B35 — 2.6-fold lower, 5.85 ± 0.29 nM
- B36 — 3.9-fold lower, 3.87 ± 0.21 nM
- B37 — 2.4-fold lower, 6.4 ± 0.5 nM
